From US20180155451A1 (published 2018) come the findings set out here.

Test [1] has as its target T1, FcγRIIIa extracellular domain with C-terminal His tag (human, UniProt P08637 17-208).
T1 construct: extracellular domain; also called FcgRIIIa; 3a; not shown: His tag at the C terminus
Briefly: SPR (Biacore), antibody captured via antigen peptide, FcγR as analyte; binding relative to GpH7-A5/GpH7-B3/GpL16-k0 = 100.

The target of test [2] is T2, FcγRIIb extracellular domain with C-terminal His tag (human, UniProt P31994 43-217).
T2 construct: extracellular domain; also called FcgRIIb; 2b; not shown: His tag at the C terminus
T2 sequence (looked up): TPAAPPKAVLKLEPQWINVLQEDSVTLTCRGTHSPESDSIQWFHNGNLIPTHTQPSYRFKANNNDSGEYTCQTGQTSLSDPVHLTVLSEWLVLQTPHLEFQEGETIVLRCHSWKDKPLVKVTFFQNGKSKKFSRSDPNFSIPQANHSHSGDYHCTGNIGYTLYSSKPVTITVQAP
Described as above.

A further test deals with T3, FcγRIIb (human, UniProt P31994 43-217).
T3 construct: extracellular domain; also called FcgRIIb; 2b
T3 sequence (looked up): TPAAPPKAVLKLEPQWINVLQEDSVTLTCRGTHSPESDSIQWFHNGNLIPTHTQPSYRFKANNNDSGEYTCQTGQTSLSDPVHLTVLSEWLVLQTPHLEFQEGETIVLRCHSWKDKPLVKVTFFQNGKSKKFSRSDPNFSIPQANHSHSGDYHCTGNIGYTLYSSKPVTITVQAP
Description: SPR (Biacore), antibody captured on antigen-peptide chip, FcγR as analyte; binding relative to GpH7-A5/GpH7-B3/GpL16-k0 = 100.

The next test addresses T4, FcγRIIa H (human, UniProt P12318 34-217).
T4 construct: extracellular domain; also called FcgRIIa H type; 2aH
T4 sequence (looked up): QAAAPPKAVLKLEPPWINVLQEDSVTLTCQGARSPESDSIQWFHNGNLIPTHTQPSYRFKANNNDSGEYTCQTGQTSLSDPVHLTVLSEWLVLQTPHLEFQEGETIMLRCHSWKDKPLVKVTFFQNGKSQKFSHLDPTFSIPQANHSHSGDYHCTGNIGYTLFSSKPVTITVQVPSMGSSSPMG
The test is described as above.

T1 sequence (P08637 17-208): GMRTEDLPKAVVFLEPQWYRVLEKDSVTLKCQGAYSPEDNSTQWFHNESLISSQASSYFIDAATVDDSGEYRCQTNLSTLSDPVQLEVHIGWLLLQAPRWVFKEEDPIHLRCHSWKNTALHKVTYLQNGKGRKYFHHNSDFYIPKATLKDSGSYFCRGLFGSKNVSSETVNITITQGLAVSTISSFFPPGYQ

B1: GpH7-A5/GpH7-B3 variant T335_05P/GpL16-k0 (antibody, human IgG1, kappa)
heavy 1: not shown
heavy 2: not shown
light: DIVMTQSPLSLPVTPGEPASISCQASESLVHSNRNTYLHWYLQKPGQSPQLLIYKVSNRFSGVPDRFSGSGSGTDFTLKISRVEAEDVGVYYCSQNTHVPPTFGQGTKVEIERTVAAPSVFIFPPSDEQLKSGTASVVCLLNNFYPREAKVQWKVDNALQSGNSQESVTEQDSKDSTYSLSSTLTLSKADYEKHKVYACEVTHQGLSSPVTKSFNRGEC
notes: He Ab: the mutation stands only in the GpH7-B3-derived H chain; also called He Ab T335P
Consider B1, for which, in test [1], the He/Con_3a was 105 relative (control = 100). For the same molecule, the He/Con_2b in test [2] is 99.9 relative (control = 100).

B2: GpH7-A5/GpH7-B3 variant E333_09D/GpL16-k0 (antibody, human IgG1, kappa)
heavy 1: not shown
heavy 2: not shown
light: DIVMTQSPLSLPVTPGEPASISCQASESLVHSNRNTYLHWYLQKPGQSPQLLIYKVSNRFSGVPDRFSGSGSGTDFTLKISRVEAEDVGVYYCSQNTHVPPTFGQGTKVEIERTVAAPSVFIFPPSDEQLKSGTASVVCLLNNFYPREAKVQWKVDNALQSGNSQESVTEQDSKDSTYSLSSTLTLSKADYEKHKVYACEVTHQGLSSPVTKSFNRGEC
notes: Heterodimerized anti-glypican-3 IgG1; substitution in only one H chain (the GpH7-B3 chain); also called He Ab
On to B2, for which the He/Con_2b with FcγRIIb was 94.3 % of HeCon Ab. Also, in the test with FcγRIIa H, the He/Con_2aH is 103 % of HeCon Ab.

B3: GpH7-A5/GpH7-B3 variant T335_06M/GpL16-k0 (antibody, human IgG1, kappa)
heavy 1: not shown
heavy 2: not shown
light: DIVMTQSPLSLPVTPGEPASISCQASESLVHSNRNTYLHWYLQKPGQSPQLLIYKVSNRFSGVPDRFSGSGSGTDFTLKISRVEAEDVGVYYCSQNTHVPPTFGQGTKVEIERTVAAPSVFIFPPSDEQLKSGTASVVCLLNNFYPREAKVQWKVDNALQSGNSQESVTEQDSKDSTYSLSSTLTLSKADYEKHKVYACEVTHQGLSSPVTKSFNRGEC
notes: as for B2
As for B3, the He/Con_2b with FcγRIIb is 99.4 % of HeCon Ab. For the same molecule, the He/Con_2aH with FcγRIIa H is 103 % of HeCon Ab.

B4: GpH7-A5/GpH7-B3 variant E333_14T/GpL16-k0 (antibody, human IgG1, kappa)
heavy 1: not shown
heavy 2: not shown
light: DIVMTQSPLSLPVTPGEPASISCQASESLVHSNRNTYLHWYLQKPGQSPQLLIYKVSNRFSGVPDRFSGSGSGTDFTLKISRVEAEDVGVYYCSQNTHVPPTFGQGTKVEIERTVAAPSVFIFPPSDEQLKSGTASVVCLLNNFYPREAKVQWKVDNALQSGNSQESVTEQDSKDSTYSLSSTLTLSKADYEKHKVYACEVTHQGLSSPVTKSFNRGEC
notes: as for B2
As for B4, the He/Con_2b in the test with FcγRIIb is 86.1 % of HeCon Ab. For the same molecule, the He/Con_2aH with FcγRIIa H is 100 % of HeCon Ab.

B5: GpH7-A5/GpH7-B3 variant E333_13S/GpL16-k0 (antibody, human IgG1, kappa)
heavy 1: not shown
heavy 2: not shown
light: DIVMTQSPLSLPVTPGEPASISCQASESLVHSNRNTYLHWYLQKPGQSPQLLIYKVSNRFSGVPDRFSGSGSGTDFTLKISRVEAEDVGVYYCSQNTHVPPTFGQGTKVEIERTVAAPSVFIFPPSDEQLKSGTASVVCLLNNFYPREAKVQWKVDNALQSGNSQESVTEQDSKDSTYSLSSTLTLSKADYEKHKVYACEVTHQGLSSPVTKSFNRGEC
notes: as for B2
In the case of B5, the He/Con_2b in the test with FcγRIIb is 81.8 % of HeCon Ab. The He/Con_2aH with FcγRIIa H was 101 % of HeCon Ab.

B6: GpH7-A5/GpH7-B3 variant I336_03V/GpL16-k0 (antibody, human IgG1, kappa)
heavy 1: not shown
heavy 2: not shown
light: DIVMTQSPLSLPVTPGEPASISCQASESLVHSNRNTYLHWYLQKPGQSPQLLIYKVSNRFSGVPDRFSGSGSGTDFTLKISRVEAEDVGVYYCSQNTHVPPTFGQGTKVEIERTVAAPSVFIFPPSDEQLKSGTASVVCLLNNFYPREAKVQWKVDNALQSGNSQESVTEQDSKDSTYSLSSTLTLSKADYEKHKVYACEVTHQGLSSPVTKSFNRGEC
notes: as for B2
Regarding B6, the He/Con_2b in the test with FcγRIIb is 90.3 % of HeCon Ab. Besides, in the test with FcγRIIa H, the He/Con_2aH is 102 % of HeCon Ab.

B7: GpH7-A5/GpH7-B3 variant T335_01G/GpL16-k0 (antibody, human IgG1, kappa)
heavy 1: not shown
heavy 2: not shown
light: DIVMTQSPLSLPVTPGEPASISCQASESLVHSNRNTYLHWYLQKPGQSPQLLIYKVSNRFSGVPDRFSGSGSGTDFTLKISRVEAEDVGVYYCSQNTHVPPTFGQGTKVEIERTVAAPSVFIFPPSDEQLKSGTASVVCLLNNFYPREAKVQWKVDNALQSGNSQESVTEQDSKDSTYSLSSTLTLSKADYEKHKVYACEVTHQGLSSPVTKSFNRGEC
notes: as for B2
Take B7: the He/Con_2b with FcγRIIb is 96.7 % of HeCon Ab. For the same molecule, the He/Con_2aH in the test with FcγRIIa H was 103 % of HeCon Ab.

B8: GpH7-A5/GpH7-B3 variant T335_05P/GpL16-k0 (antibody, human IgG1, kappa)
heavy 1: not shown
heavy 2: not shown
light: DIVMTQSPLSLPVTPGEPASISCQASESLVHSNRNTYLHWYLQKPGQSPQLLIYKVSNRFSGVPDRFSGSGSGTDFTLKISRVEAEDVGVYYCSQNTHVPPTFGQGTKVEIERTVAAPSVFIFPPSDEQLKSGTASVVCLLNNFYPREAKVQWKVDNALQSGNSQESVTEQDSKDSTYSLSSTLTLSKADYEKHKVYACEVTHQGLSSPVTKSFNRGEC
notes: as for B2
As to B8, the He/Con_2b with FcγRIIb is 99.9 % of HeCon Ab. Besides, the He/Con_2aH with FcγRIIa H is 108 % of HeCon Ab.
